# From the nanobody polyreactivity screen of Harvey et al. (2022)
# Assay: yeast display, Sf9 membrane polyspecificity reagent, FACS + sequencing; frameworks hold sequencing errors
# Method in brief: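 Polyreactivity labels are assigned by the sorting gate from which each nanobody was recovered. The gates were low and high (top ~1%), set on anti-HA fluorescence for expression and streptavidin fluorescence for reagent binding. Before sorting, galactose-induced (36–48 hours) yeast display cells were stained for 1 hour at 4 °C with 10% biotinylated, detergent-solubilized Sf9 membrane reagent.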
row,Sequence,polyreactivity (PSR sort gate)
1,QVQLVESGGGLVQAGGSLRLSCAASGIIFESNVMGWYRQAPGKERELVAAISRSGSRTYYADSVKGRFTISRDNAKNTVYLQMNSLKPEDTAVYYCATDSHTADEYEHWGQGTQVTVSS,high polyreactivity
2,QVQLVESGGGLVQAGGSLRLSCAASGIIFEYYDMGWYRQAPGKERELVAAIDSGGSTYYADSVKGRFTISRDNAKNTVYLQMNSLKPEDTAVYYCAAETVRYEWGESPAALFDYWGQGTQVTVSS,low polyreactivity
3,QVQLVESGGGLVQAGGSLRLSCAASGIIFFAYAMGWYRQAPGKERELVAAISSSGGRTYYSDSVKGRFTISRDNAKNTVYLQMNSMIPEDTAVYYCTARWHGSFDYWGQGTQVTVSS,low polyreactivity
4,QVQLVESGGGLVQAGGSLRLSCAASGIIFFDYAMGWYRQAPGKERELVAAITGSGGRTYYADSVKGRFTISRDNAKNTVYLQMNSLKPEDTAVYYCAAARYYYGGDYWGQGTQVTVST,high polyreactivity
5,QVQLVESGGGLVQAGGSLRLSCAASGIIFFEYVMGWYRQAPGQERELVAAINRSGGRTYYADSVKGRFTISRDNAKNTVYLQMNSLKPEDTAVYYCAAEHYTGSGGYDYWGHGTQVTVSS,high polyreactivity
6,QVQLVESGGGLVQAGGSLRLSCAASGIIFFGYAMGWYRQAPGKERELVADITNGGRTYYADSVKGRFTISRDNAKNTVYLQMNSLKPEDTAVYYCAADAFWEVYYYNALEYDYWGQGTQVTVSS,high polyreactivity
7,QVQLVESGGGLVQAGGSLRLSCAASGIIFGAYAMGWYRQAPGKERELVAAITYSSGSTYYADSVKGRFTISRDNAKNTVYLQMNRLKPEDTAVYYCAKTNFSQSSRSNYDYWGQGTQVTVSS,low polyreactivity
8,QVQLVESGGGLVQAGGSLRLSCAASGIIFGGNVMGWYRQAPGKERELVAAISGTGDNTYYADSVKGRFTISRDNAKNTVYLQMNSLKPEDTAVYYCNTVYYGWPRRYGYWGQGTQVTVSS,high polyreactivity
9,QVQLVESGGGLVQAGGSLRLSCAASGIIFGGYAMGWYRQAPGKERELVASITWGGGSTYYADSVKGRFTISRDNAKNTVYLQMNSLKPEDTAVYYCNKRGYPGYDWGQGTQVTVSS,low polyreactivity
10,QVQLVESGGGLVQAGGSLRLSCAASGIIFGHYALGWYRQAPGKERELVAAITASSGNTYYADSVKGRFTISRDNAKNTVYLQMNSLKPEDTAVYYCAAVSYSSYRYDSWGQGTQVTVSS,high polyreactivity
11,QVQLVESGGGLVQAGGSLRLSCAASGIIFGIYARGWYRQAPGKERELVAAIRYRGGNTNYADSVKGRFTISRDNAKNTVYLQMNSLKPEDTAVYYCAAKRFADPYYYWGQGTQVTVSS,high polyreactivity
12,QVQLVESGGGLVQAGGSLRLSCAASGIIFGKYDMGWYRQAPGKEREMVAAITSGTSTNYADSVKGRFTISRDNAKNTVYLQMNSLKPEDTAVYSCAADVYLYYPYFGHRRYNYWGQGTQVTVSS,high polyreactivity
13,QVQLVESGGGLVQAGGSLRLSCAASGIIFGRNARGWYRQAPGKEREMVAGITRRGARTYYADSVKGRFTISRDNAKNTVDLQMKSLKPEDTSVYYCATYSVQTDYGRGDYWGQGTKVTVSS,high polyreactivity
14,QVQLVESGGGLVQAGGSLRLSCAASGIIFGTNAMGWSRQAPGKERELVAAITWSGGTYYADSVKGRFTISRDNAKITVYLQMNSQKPEDTAVYYCNAEWRVYPDLYDYWGQGTQVTVSS,low polyreactivity
15,QVQLVESGGGLVQAGGSLRLSCAASGIIFGTNAMGWSRQAPGKERELVAGITSSGDSTYYADSVKGRFTISRDNAKNTVYLQMNSLKPEDTAVYYCARDIRTREFDSWGQGTQVTVSS,low polyreactivity
16,QVQLVESGGGLVQAGGSLRLSCAASGIIFGTNAMGWYRQAPGKERELVAYITSGGSTYADSVKGRFKISRDNAKNTVYLQMNSLKPEDTAVYSCAAYVFWAFYEYDYWGQGTQVTVSS,low polyreactivity
17,QVQLVESGGGLVQAGGSLRLSCAASGIIFGTYAMGWYRQAPGKERELVAVITSGAGRTYYADSVKGRFTISRDNAKNTVYLQMNSLKPEDTAVDYCAARVWYPRYDYWGQGTQVTVSS,high polyreactivity
18,QVQLVESGGGLVQAGGSLRLSCAASGIIFGVYAMGWYREAPGKERELVAAISRSGDSTYYADSVKGRFTISRDNAKNTVYLQMNSLKPEDTAVYYCAAEWYFTFDYWGQGTQVTVSS,low polyreactivity
19,QVQLVESGGGLVQAGGSLRLSCAASGIIFGVYAMGWYRQAPGKERELVAAISRSGDSTYYADSVKGRFTISRDNAKNTVYLQMNSLKPEDTAVYYCAAEWYITFDYWGQGTQVTVSS,low polyreactivity
20,QVQLVESGGGLVQAGGSLRLSCAASGIIFGWYAMGWYRKAPGKERELVAAISSGGRTNYADSVKGRFTISRDNAKNTVYLQMNSLKPEDTAVYYCAAAYIRGSRRYDYWGQGTQVTVSS,high polyreactivity
21,QVQLVESGGGLVQAGGSLRLSCAASGIIFGYYAMGWYRQAPGKERELVAAISWSGVSTYYADSVKGRFTISRDNAKNTVYLQMHSLKPEDTAVYYCAVGYVLTGVFQARFDYWGQGTQVTVSS,high polyreactivity
22,QVQLVESGGGLVQAGGSLRLSCAASGIIFHFNAMGWYRQAPGKERELVAAITSGANTNYADSVKGRFTISRDNAKNTVYLQMNSLKPEDTSVYYCATRPHTDVRFVRTRRYDYWGQGTQVTVSS,low polyreactivity

row,Sequence,polyreactivity (PSR sort gate)
1,QVQLVESGGGLVQAGGSLRLSCAASGIIFHFNEMGWYRQAPGKERELVAAITSGGSTNYADSVKGRFTISRDNAKNTVYLQMNSLKPEDTAVYYCAARRGLRLFAYRHGYWGQGTQVTVSS,low polyreactivity
2,QVQLVESGGGLVQAGGSLRLSCAASGIIFHKYAMGWYRQAPGKERELVAVITWRGGSTYYADSVKGRFTISRDHAKNTVYLQMNSLKPEDTAVYYCAARSQYRDRTGQYGYWGQGTQVTVSS,high polyreactivity
3,QVQLVESGGGLVQAGGSLRLSCAASGIIFIGNAMGWYRQAPGKERELVAAIRSGTGTNYADSVKGRFTISRDNAKNTVYLQMNSLKPEDTAVYYSNADYNSGTYTQGTHEGDYWGQGTQVTVSS,low polyreactivity
4,QVQLVESGGGLVQAGGSLRLSCAASGIIFISNAMGWSRQAPGTERELVADITSGGGSTYYADSVKGRFTISRDNAKNTVDLQMNSLKPDDTAVYYGAKRATGAYVFFFDSWGQGTQVTVSS,low polyreactivity
5,QVQLVESGGGLVQAGGSLRLSCAASGIIFKEYALGGYRQAPGKERELVARITGSTGSTYADSVNGRFTISRDNAKNTVYLQMNSLKPEDTAVYYCAKYIGRGERLSDTRYGLDYWGQGTQVSVSS,low polyreactivity
6,QVQLVESGGGLVQAGGSLRLSCAASGIIFKEYAMGGYRPAPGKERELVAAISGRGGSTYYADSVKGRFSISRDNAKNTVYLQMSSLKPEDTAVYYCNAVASWQRYDYWGQGTQVTVSS,high polyreactivity
7,QVQLVESGGGLVQAGGSLRLSCAASGIIFKIYAMGWYRQAPGKERELVAAISKRGASTYYADSVKGRFTISRDNAKNTVYLQMNSLKPEDTAVYYCAAYRQGSAYDYWGQGTQVTVSS,high polyreactivity
8,QVQLVESGGGLVQAGGSLRLSCAASGIIFKIYAMGWYRQAPGKERELVAAISWRGGSTYYADSVKGRFTISRDNAKNTVYLQMNSLKPEDTAVYYCAAARGYRTGYGYWGQGTQVTVSS,high polyreactivity
9,QVQLVESGGGLVQAGGSLRLSCAASGIIFKYYAMGWYRPAPGKERELVAAITASGGRTYYADSVKGRFTISRDNAKNTVYLQMNSLKPEDTAVYYCAADSRSAYDYWGQGTQVTVSS,high polyreactivity
10,QVQLVESGGGLVQAGGSLRLSCAASGIIFKYYAMGWYRQAPGKERELVAAITRSGGSTYYADSVKGRFTISRDNAKNTVYLQMYSLKPEDTAVYYCAAQTGYSYGITWQFTKYNYWGQGTQVTVSS,low polyreactivity
11,QVQLVESGGGLVQAGGSLRLSCAASGIIFLDNVMRWYRQAPGKERELVAAISSSGGSTYYADSVKGRFTISRDNAKNTVYLQMNSLKPEDTAVYYCAAYFRRGFYYWGQGTQVTVSS,high polyreactivity
12,QVQLVESGGGLVQAGGSLRLSCAASGIIFLENAMGWYRQAPGKEREFVAAISRSGGITYYADSVKGRFTISRDNAKNTVYLQMNSLKPEDTAVYYCAAVGRDRYRHSPQPLYDYWGQGTQVTVSS,low polyreactivity
13,QVQLVESGGGLVQAGGSLRLSCAASGIIFLEYAMGWYRQAPGKERELVAAISSDDGSSTYYADSVKGRFTISRDNAKNTVYLKMNSLKPEDTAVYYCAAYGGGGYYYDYEYWGQGTQVTVSS,high polyreactivity
14,QVQLVESGGGLVQAGGSLRLSCAASGIIFLGYARGWYRQAPGKERELVADIYSGVRTYYADSVKGRFTISRDNAKNTVYLQMNSLKPEDTAVYYCNATWTPYSSKQYYYWGQGTQVTVSS,low polyreactivity
15,QVQLVESGGGLVQAGGSLRLSCAASGIIFLKYAMGWYRQAPGKERELVAAISRSGGGTYYADSVKGRFTISRDNAKNTVYLQMNSLKLEDTAVYYCAARGVDRQGYRFYYWGQGTQVTVSS,high polyreactivity
16,QVQLVESGGGLVQAGGSLRLSCAASGIIFLNYVMGWYRQAPGKERELVAAITTSGASTYYADSVKGRFTISRDNAKNTVYLQMNSLKPEDTAVYYCAAVFRHARYRYDYWGLGTQVTVSS,high polyreactivity
17,QVQLVESGGGLVQAGGSLRLSCAASGIIFLSYAMGWYRQAPGKERELVAAIRSRGDSTYYADSVKGRFTISRDNAKNTVYLQMNSLKPEDTAVYYCNARQRRYPYGYWGQGTQVTVSS,high polyreactivity
18,QVQLVESGGGLVQAGGSLRLSCAASGIIFLYYAMGWYRQAPGKERELVAAISKSGGSTYYADSVKGRFTISRDNAKNTVYLQMNSLKPEDTAVYYCAARLWHLSYAGQGGDYWGQGTQVTVSS,low polyreactivity
19,QVQLVESGGGLVQAGGSLRLSCAASGIIFNANTMLWYRQAPGKERELVAAITRGGSTNYADSEKGRFTISRDNAKNTVYLQMNSLKPEDTAVYYCAARTGYYCGSGGNRYISPYDYWGQGTQVTVSS,low polyreactivity
20,QVQLVESGGGLVQAGGSLRLSCAASGIIFNSNAMGWYRQAPGKERELVAAISVSGGSTYYADSVKGRFTISRDNAKNTVYLQMNSLKPEDTAVYYCAAVFYYWSLRSYYWGQGTQVTVSS,high polyreactivity
21,QVQLVESGGGLVQAGGSLRLSCAASGIIFPPYAMGWYRQAPWKEREFVAGITSSGGTYYADSVKGRFTISRDNAKNTVYLQMNSLKPEDTAVYYCAARQGNLRRGVRWFNYWGQGTQVTVSS,high polyreactivity
